Positions count from the first letter of the chain named. Numbers in names are those of the source.
B1: EstSIT01 (Microbacterium aurantiacum) (protein)
chain: MTLFDGITSRIVDTDRLTVNILERAADDPQTPPDRTVVFVHGNVSSALFWQEIMQDLPSDLRAIAVDLRGFGGSEHAPVDATRGVRDFSDDLHATLEALDIPVAHLVGWSMGGGVVMQYALDHPVLSLTLQSPVSPYGFGGTRRDGSRLTDDDAGCGGGGANPDFIQRLIDHDTSDDAQTSPRSVFRAGYVASDYTTDHEDVWVESMLTTSTADGNYPGDAVPSDNWPGFAAGRHGVLNTMAPQYFDVSGIVDLAEKPPILWIHGTADAIVSDASFYDLNYLGQLGIVPGWPGEDVAPAQEMVSQTRDVLGRYAAGGGTVTEVAVEGAGHSAHLERPAVFRHALLEIIGYVGAAADPAPPTEAIIIRSAD
B2: EstSIT01 (Microbacterium aurantiacum; E301P/G215A) (protein)
chain: B1 chain with G215A, E301P
B3: EstSIT01 (Microbacterium aurantiacum; E301P/G215A/G293A) (protein)
chain: B1 chain with G215A, G293A, E301P
B4: EstSIT01 (Microbacterium aurantiacum; E301P) (protein)
chain: B1 chain with E301P

substrate: COC(=O)[C@@H]1[C@H](C(=O)OC)N(Cc2ccccc2)C(=O)N1Cc1ccccc1; test: HPLC of biotin monomethyl ester, Michaelis-Menten fit; assay type: biochemical, Microbacterium aurantiacum; conditions: pH 8.0, 0.05 M PBS, 30 °C, substrate 0.1 to 10 mM
Description: HPLC of biotin monomethyl ester, Michaelis-Menten fit on […]01

Row | Protein | Km [mM] | kcat [s⁻¹] | kcat/Km [M⁻¹ s⁻¹]
1 | B1 | 0.15 ± 0.02 | 7.8 ± 0.31 | 51900
2 | B2 | 0.21 ± 0.04 | 5.4 ± 0.37 | 25600
3 | B3 | 0.18 ± 0.03 | 6.3 ± 0.39 | 34900
4 | B4 | 0.22 ± 0.03 | 5.1 ± 0.28 | 23200

From PMC11676285, “Enhancement of the Thermostability of Microbacterium Esterase by Combinatorial Rational Design” (Molecules, 2024)
